{"source": "patent US20040110933A1", "binders": {"B1": {"name": "BE-A11 (Fab displayed on phage) (Fab, V domains shown)", "VH": "EVQLLESGGGLVQPGGSLRLSCAASGFTFSKYSMEWVRQAPGKGLEWVSRIYPSGGPTLYADSVKGRFTISRDNSKNTLYLQMNSLRAEDTAVYYCARDSYGMDVWGQGTTVTVSS", "VL": "QSVLTQPASVSGSPGQSITISCTGTSSDVGGYSYVSWYQQHPGKAPKLMIYEVSNRPSGVSNRFSGSKSGNTASLTISGLQAEDEADYYCNSYTSSSTKMFGGGTRLTVL"}}, "key": {"[1]": {"molecular_target": "biotinylated CD44Fc (human) (UniProt P16070)", "assay": "phage ELISA on b-CD44Fc, no competitor"}, "[2]": {"molecular_target": "biotinylated CD44Fc (human) (UniProt P16070)", "assay": "competition phage ELISA on b-CD44Fc, competitor S5 (450 ng) pre-incubated"}}}
{"binder": "B1", "values": [{"measurement": "phage ELISA signal (column CD44)", "setting": "[1]", "result": 1.08}, {"measurement": "phage ELISA signal (column CD44 + S5)", "setting": "[2]", "result": 0.261}]}
